test system: MS2 coat protein; assay: apparent KD of MS2 coat protein; higher = weaker reporter binding; conditions: Eterna round: R107; input ligand: arginine 13.2 mM
Summary of the method: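 Apparent KD was obtained for each design as the median of normalised binding-curve fits over its clusters. RNA switches transcribed on-chip from Illumina sequencing clusters were titrated with SNAP-549-labelled MS2 coat protein (twofold steps, 0.7 or 1.5 nM to 3 µM) in 100 mM Tris-HCl pH 7.5, 80 mM KCl, 4 mM MgCl2, without or with constant ligand.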

Point of comparison: “ACAUGAGGAUCACCCAUGUUCCUCUUUGAUACCAGUGAGUUGUUUCGCCCUUGGCAGCGAGUGUUUGUUUUUUUGUUUUGUUUGG [6.S]”, “apparent KD of MS2 coat protein” value 137 nM. Against it:
- UACGCUAGGGCGGCCGCCACUCGGACAUGAGGAUCACCCAUGUCGAUUAAUUGAAGGACAUGAAUGAGGACCGGGCUAAGCUAGG [Same State - Tryptophan B / B] — 6.6-fold lower, 20.8 nM
- UGUGCAUGAGUUGGAAAAGCUCAUGGGCAUCGAGGACCGGUACGGCCGCCACUCGGCUGUACAUGAGGAUCACCCAUGUCAGGGU [#1 Same State - Tryptophan A Attempt #23 (HarryS)] — 1.7-fold lower, 82 nM
- GAACAUAUGGAUACUAUUAUGAGCACAGAAGGAGCGAGCGGAAGCUCAGGUAGGUCGCUGGGUAACAUGAGGAUCACCCAUGUUG [XArg-A sub1] — 7.3-fold lower, 18.7 nM
- AAUAUUAUGUCGGCCGCCACUUCCCACAAGAGGUGCCUGCACCCACAUGAGGAUCACCCAUGUCGAAGGACCGGGACGCUCAAUU [theeternabot_sameState_MS2_Trp_B_35] — 6.7-fold lower, 20.5 nM
- GGCUAGGUCUCGGCCGCCACUGCUACAUGAGGAUCACCCAUGUACCUGGGCGGUCGCUCCCUCGGCAGGACCGGGAGACAUUCGU [Onarbeisan] — 15-fold lower, 9.2 nM
- UUGUUGUUUGGAAGGAGCGUGGAUGAGUUAGAACAUGAGGAUCACCCAUGUUGGAUGAUACCACAGGUAGGUCGCCGGGUGGUGG [11.Z] — 1.7-fold higher, 229 nM
- AACAUGAGGAUCACCCAUGUCCUCGUGAUUCGAGGACCGGUACGGCCGCCACUCGGUCCUCGCGAGGUGGAGUCAAAGACUCCAA [Omei Trp A SS A v3] — 1.9-fold lower, 72.3 nM
- GCACGACAUGAGGAUCACCCAUGUGCAGAUACCAGUAAUGUAUGUUACCCUUGGCAGCUGAGUAGGUCUGGAGGGCUAUAGGUUU [Same State Theophylline A GF13] — 8.9-fold lower, 15.4 nM
- CUCCCGUGAGCGGCCGCCACUGGAGGCCUCGCGCGACAUGAGGAUCACCCAUGUUGGCCCGGCCUCAGGACCGGGUUCGCGCGAG [Same State - Tryptophan B Attempt #5 (HarryS)] — 17-fold lower, 7.94 nM
- UGACAUUGCUCAGAUACCAGACAUGAGGAUCACCCAUGUACCAAGGUACCCGAAAGGAAUGUCCCUUGGCAGCUGAGCAAUGUCU [TheoBX 3 #MS2Left #Theo2 #StaticStem] — 12-fold lower, 11.7 nM
- AAACGUUGCUGCGAUACCAGACAUGAGGAUCACCCAUGUACCGAGGUACCCGAAAGGAAUGUCCCUUGGCAGCGCAGCAACGAAA [MAT - Exclusion Theophlline B - Mod of Eli - D24] — 12-fold lower, 11.2 nM
- GGUUGGUUUAUAUAUAGAUUGAUUACUGAAGGAGCGGGAAAUAACCCAGGUAGGUCGCAGAGAUCCACAUGAGGAUCACCCAUGU [!0.I] — 4-fold lower, 34.2 nM
- ACAUGAGGAUCACCCAUGUGCAUCACCCGACGAGGACCGGUACGGCCGCCACUCGGGUAUAUAUUUGCAUCGGGUGAUUUUACGU [#25 Tryptophan A Same State] — 8.8-fold lower, 15.5 nM
- AGUCUUAAUGGAAGGAGCGCAGUCAUAACAUGAGGAUCACCCAUGUCGAGGUGAGGGUCAUUGCAGGUAGGUCGCCAUACUAGAA [Same State - Arginine B (Freestyle 1)] — within 1.5-fold, 131 nM
- CUUACGGGAAACCGACCCAAACAACGGGAAGGAGCGCCAAACAAGGCAGGUAGGUCGCCCACAUGAGGAUCACCCAUGUGUUGGG [Exclusion Arginine A GF 26] — 3.2-fold lower, 42.6 nM
- AAUUGCGUUGGUGAGGCGGUUAAUGGCGAUACCAGCGUGGAAACACGCCCUUGGCAGCGCCAAAACAUGAGGAUCACCCAUGUUA [Liberec] — 2.7-fold lower, 50.7 nM
- UUAUUUAUAGGGUAUAUCAGAUUAACUGAAGGAGCGUGGUAAUUCACAGGUAGGUCGCAGAUGGAACAUGAGGAUCACCCAUGUU [JR_ExcArginiA_Sub015] — 7.5-fold lower, 18.2 nM
- AGAAGUCCAGACUACACGUGGAAAAGCGAUACCAGACUCAUAGGUGUCCCUUGGCAGCGCGUAACAUGAGGAUCACCCAUGUGAU [theeternabot_exclusion_MS2_Theo_A_9] — 2.1-fold lower, 66.8 nM
- AAUAAUAAGGCGGCCGCCACUAAACAUGAGGAUCACCCAUGUCUCGAGCGCAUGCAUAAGGGAUGUAGGACCGGGCCAAUAAUAA [Exclusion - Tryptophan B (Freestyle 2)] — 6.2-fold lower, 22 nM
- CCAUACGUAACUGAUACCAGUGUACUGACAUGAGGAUCACCCAUGUUGGGUUUUGUUGUACACCCUUGGCAGCAGAAUCGUAUGG [AstrosExyTheB#19] — 2.4-fold lower, 56.5 nM
- AAAUAAACAUCGGCCGCCACUUACUCAUGAGGUAACAACAUGAGGAUCACCCAUGUUUGAGGAUCAAGGACCGGGAUGUAAUAAA [AstrosSSTryB#1] — 5.9-fold lower, 23.1 nM
- ACACGAAGCUGAAGGAGCGUGGUACAAGUUUUUACAUGAGGAUCACCCAUGUUUCGUCAAUCACAGGUAGGUCGCAGAUGCGUGA [#08 Same State - Arginine B] — 4.3-fold lower, 32.1 nM
- ACACAUGAGGAUCACCCAUGUCCAAUAGAUACCAGUGAUACAGUGCACCCUUGGCAGCUGUUACUGAGUAAUGGUUCCCUCGGAA [Same State Theophylline A GF2] — 5.1-fold lower, 26.8 nM
- UUAUUUAUAAUGGAUACCAGUUUAAUGGCCGCAAAUCCUGACAUGAGGAUCACCCAUGUAAGCCCUUGGCAGCUGUUAUGGGUUU [XTheo B #24] — 4-fold lower, 34.2 nM
- UCAUGCAGGUCGGCCGCCACUACACACAUGAGGAUCACCCAUGUAGUUACUGGGUGAAGUGGCAGUAGGACCGGGACCUGCAUAU [Brourdmod08] — within 1.5-fold, 155 nM
- AUACAUGAGGAUCACCCAUGUCAUUCAGAAGGAGCGUCAUUUUAGACAGGUAGGUCGCUGUUAUUUUUAUUAUUCUUUAUGUUUU [JR_Nu_ExcArginiA_Sub025] — 7.1-fold lower, 19.4 nM
- UGUAUGUGAUCUGAUACCAGAGUUGAUAAUCUGAGGAUCACCCUGGUAAGGCGAAAGCCGCUCCCUUGGCAGCAGAUCGCAUACU — 3.8-fold higher, 526 nM
- UUCUGGUCCCGUGAUACCAGAGACAUGAGGAUCACCCAUGUACAUGAGGAUCACCCAUGUUUCCCUUGGCAGCACUGCAGUGAGC [Exclusion Theophylline B GF 15] — 2.4-fold lower, 56 nM
- AAAGAUCGGAAACGAUCGGCGGCUUGGGCGCGAGGACCGGUACGGCCGCCACUCGGGAAACAUGAGGAUCACCCAUGUUGCUUCU [ETA NP+V+V2 #16] — 14-fold lower, 10 nM
- CACAUGAGGAUCACCCAUGUCUGAACUGAAGGAGCGCUAAAUAAGGCAGGUAGGUCGCGGAAUCCUGUGUGCAUAUGCACACGGG [9.X] — 6.6-fold lower, 20.7 nM
- AGUACUCGAACGGAUACCAGCCGGACAUGAGGAUCACCCAUGUCCUACCAUGUUUCGGUUGGCCCUUGGCAGCCGUUCGUGUACA [Omei Theo B SS A v1] — 1.5-fold higher, 207 nM
- UAUAACAUGAGGAUCACCCAUGUAAGUGAUACCAGAUAAAUAAUAGUCCCUUGGCAGCAUAUUGGGAAAAUGUAUAAUAUAUAUU [Same State - Theophylline A (Freestyle 1)] — 2.7-fold lower, 49.9 nM
- ACAUGAACAUGAGGAUCACCCAUGUAUGAUACCAGAAAAGAAGAGUUCCCUUGGCAGCGUACAACACAUGAGGAUCACCCAUGUG [kvcmullin] — 6.7-fold lower, 20.3 nM
- GAUAACAUGAGGAUCACCCAUGUGGCGUCGCGAGGACCGGUACGGCCGCCACUCGGCAGUUCAACUCGAAUAUAGUGAUCGAAGU [theeternabot_sameState_MS2_Trp_A_16] — 2.9-fold lower, 47.6 nM
- UACCGAUGAAGAAGGAGCGUAUGCUUAUAUGAUGGUAACAUGAGGAUCACCCAUGUCAGUAUACAGGUAGGUCGCUUCAUCGGUA [EAB NP+V+V2 #22] — 3-fold lower, 45.3 nM
- AAAGGACAUGAGGAUCACCCAUGUCUCGAUACCAGCCGAUCAUCAGGCCCUUGGCAGCGAGACAAGGGUCAUGGAUCGCGGUUCU [Beerusmage] — 12-fold lower, 11.7 nM
- ACAUGAACAUGAGGAUCACCCAUGUGGGAUACCAGCGUGUAUGAGCGCCCUUGGCAGCUCAUGACAUGAGGAUCACCCAUGUUGG [Exclusion Theophylline A 4] — within 1.5-fold, 154 nM

same assay, conditions: Eterna round: R107; input ligand: none

“UACGCUAGGGCGGCCGCCACUCGGACAUGAGGAUCACCCAUGUCGAUUAAUUGAAGGACAUGAAUGAGGACCGGGCUAAGCUAGG [Same State - Tryptophan B / B]” was tested, and the “apparent KD of MS2 coat protein” value was 29.4 nM.

— the supplement of paper PMC9170038
